Test results reported in US20260049138A1 (Chugai, published 2026).
Substitutions are numbered along the chain they refer to. Names and notes keep the numbering of the source.

Key:
CD3ε homodimer protein [1] = biological target: T1, CD3ε homodimer protein (human, UniProt P07766 23-126, limits assumed); assay: SPR Biacore T200, CD3ε homodimer on chip;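 also: Light-chain single-residue variant antibodies injected over amine-coupled CD3ε homodimer on a CM4 chip at 25 °C, bound amount divided by that of the GLS3000-containing antibody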
T1 construct: also called CD3 (CD3ε)

CD3ε homodimer protein [2] = biological target: T2, CD3ε homodimer protein (human, UniProt P07766 23-126, limits assumed, sulfo-tag or biotin label in the ECL assays; amine-coupled to the chip in SPR); assay: SPR Biacore T200; CD3ε homodimer on CM4 chip;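 also: Single-residue variant antibodies injected as analyte over CD3ε homodimer immobilized by amine coupling, run at 25 °C in HBS-EP+ buffer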
T2 construct: also called human CD3ε homodimer protein; CD3 (CD3ε)
T2 sequence (P07766 23-126 limits assumed): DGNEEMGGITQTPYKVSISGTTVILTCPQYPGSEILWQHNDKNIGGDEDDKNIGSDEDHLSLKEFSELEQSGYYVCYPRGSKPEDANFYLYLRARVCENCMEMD

T1 sequence (P07766 23-126 limits assumed): as above

B1: GLS3000 Y96F one-arm antibody (antibody, human IgG1, kappa, L234A L235A, N297A, name in Kabat numbering)
heavy: QVQLVESGGGVVQPGRSLRLSCAASGFTFSNAWMHWVRQAPGKGLEWVAQIKAKSNNYATYYAESVKGRFTISRDDSKNSLYLQMNSLKTEDTAVYYCRYVHYGAYYGVDAWGQGTTVTVSSASTKGPSVFPLAPSSKSTSGGTAALGCLVKDYFPEPVTVSWNSGALTSGVHTFPAVLQSSGLYSLSSVVTVPSSSLGTQTYICNVNHKPSNTKVDKKVEPKSCDKTHTCPPCPAPEAAGGPSVFLFPPKPKDTLMISRTPEVTCVVVDVSHEDPEVKFNWYVDGVEVHNAKTKPREEQYASTYRVVSVLTVLHQDWLNGKEYKCKVSNKALPAPIEKTISKAKGQPREPQVYTLPPSRCELTKNQVSLSCAVKGFYPSDIAVEWESNGQPENNYKTTPPVLDSDGSFFLVSKLTVDKSRWQQGNVFSCSVMHEALHNHYTQKSLSLSPDYKDDDDK
chain: EPKSSDKTHTCPPCPAPELLGGPSVFLFPPKPKDTLMISRTPEVTCVVVDVSHEDPEVKFNWYVDGVEVHNAKTKPREEQYNSTYRVVSVLTVLHQDWLNGKEYKCKVSNKALPAPIEKTISKAKGQPREPQVCTLPPSRDELTKNQVSLWCLVKGFYPSDIAVEWESNGQPENNYKTTPPVLDSDGSFFLYSKLTVDKSRWQQGNVFSCSVMHEALHNRYTQKSLSLSP
light: DIVMTQSPLSLPVTPGEPASISCRSSQSLVHSNRNTYLHWYQQKPGQAPRLLIYKVSNRFSGVPDRFSGSGSGTDFTLKISRVEAEDVGVYYCGQGTQVPFTFGQGTKLEIKRTVAAPSVFIFPPSDEQLKSGTASVVCLLNNFYPREAKVQWKVDNALQSGNSQESVTEQDSKDSTYSLSSTLTLSKADYEKHKVYACEVTHQGLSSPVTKSFNRGEC
Question: B1 was tested. Which “ratio of amount bound vs unaltered GLS3000” value (shortened to “ratio of amount bound”) (CD3ε homodimer protein [1]) did it give?
Answer: 1.17

B2: CE115HA000 H35A one-arm antibody (antibody, human IgG1, kappa, L234A L235A, N297A, name in Kabat numbering)
heavy: B1 heavy with H35A
chain: B1 chain
light: B1 light with F101Y
Question: B2 was tested. Which “ratio of amounts bound Z=Y/X (altered form / CE115HA000)” value (CD3ε homodimer protein [2]) did it give?
Answer: 0.17

B3: GLS3000 Q45E one-arm antibody (antibody)
chain 1: B1 light with R50E, F101Y
chain 2: B1 heavy
chain 3: B1 chain
Question: For B3, which “ratio of amount bound” value (CD3ε homodimer protein [1]) is on record?
Answer: 0.75

B4: CE115HA000 A56K one-arm antibody (antibody, human IgG1, kappa, L234A L235A, N297A, name in Kabat numbering)
heavy: B1 heavy with A59K
chain: B1 chain
light: B1 light with F101Y
Question: How did the “ratio of amounts bound Z=Y/X (altered form / CE115HA000)” value (CD3ε homodimer protein [2]) turn out when B4 was run?
Answer: 1.35

B5: CE115HA000 A56Y one-arm antibody (antibody, human IgG1, kappa, L234A L235A, N297A, name in Kabat numbering)
heavy: B1 heavy with A59Y
chain: B1 chain
light: B1 light with F101Y
Question: B5 was tested. Which “ratio of amounts bound Z=Y/X (altered form / CE115HA000)” value (CD3ε homodimer protein [2]) did it give?
Answer: 0.66

B6: CE115HA000 A52aP one-arm antibody (antibody, human IgG1, kappa, L234A L235A, N297A, name in Kabat numbering)
heavy: B1 heavy with A53P
chain: B1 chain
light: B1 light with F101Y
Question: How did the “ratio of amounts bound Z=Y/X (altered form / CE115HA000)” value (CD3ε homodimer protein [2]) turn out when B6 was run?
Answer: 0.15

B7: CE115HA000 A99T one-arm antibody (antibody, human IgG1, kappa, L234A L235A, N297A, name in Kabat numbering)
heavy: B1 heavy with A105T
chain: B1 chain
light: B1 light with F101Y
Question: How did the “ratio of amounts bound Z=Y/X (altered form / CE115HA000)” value (CD3ε homodimer protein [2]) turn out when B7 was run?
Answer: 0.84

B8: CE115HA000 A99Y one-arm antibody (antibody, human IgG1, kappa, L234A L235A, N297A, name in Kabat numbering)
heavy: B1 heavy with A105Y
chain: B1 chain
light: B1 light with F101Y
Question: B8 was tested. Which “ratio of amounts bound Z=Y/X (altered form / CE115HA000)” value (CD3ε homodimer protein [2]) did it give?
Answer: 1.59

B9: CE115HA000 A99Q one-arm antibody (antibody, human IgG1, kappa, L234A L235A, N297A, name in Kabat numbering)
heavy: B1 heavy with A105Q
chain: B1 chain
light: B1 light with F101Y
Question: With B9 as the binder, how does the “ratio of amounts bound Z=Y/X (altered form / CE115HA000)” value (CD3ε homodimer protein [2]) read?
Answer: 0.91

B10: CE115HA000 A56D one-arm antibody (antibody, human IgG1, kappa, L234A L235A, N297A, name in Kabat numbering)
heavy: B1 heavy with A59D
chain: B1 chain
light: B1 light with F101Y
Question: For B10, which “ratio of amounts bound Z=Y/X (altered form / CE115HA000)” value (CD3ε homodimer protein [2]) is on record?
Answer: 0.51

B11: CE115HA000 A52aV one-arm antibody (antibody, human IgG1, kappa, L234A L235A, N297A, name in Kabat numbering)
heavy: B1 heavy with A53V
chain: B1 chain
light: B1 light with F101Y
Question: Which “ratio of amounts bound Z=Y/X (altered form / CE115HA000)” value (CD3ε homodimer protein [2]) does the source give for B11 here?
Answer: 0.52

B12: CE115HA000 A52aD one-arm antibody (antibody, human IgG1, kappa, L234A L235A, N297A, name in Kabat numbering)
heavy: B1 heavy with A53D
chain: B1 chain
light: B1 light with F101Y
Question: Which “ratio of amounts bound Z=Y/X (altered form / CE115HA000)” value (CD3ε homodimer protein [2]) does the source give for B12 here?
Answer: 1.34

B13: CE115HA000 A99L one-arm antibody (antibody, human IgG1, kappa, L234A L235A, N297A, name in Kabat numbering)
heavy: B1 heavy with A105L
chain: B1 chain
light: B1 light with F101Y
Question: With B13 as the binder, how does the “ratio of amounts bound Z=Y/X (altered form / CE115HA000)” value (CD3ε homodimer protein [2]) read?
Answer: 1.13

B14: CE115HA000 A52aG one-arm antibody (antibody, human IgG1, kappa, L234A L235A, N297A, name in Kabat numbering)
heavy: B1 heavy with A53G
chain: B1 chain
light: B1 light with F101Y
Question: With B14 as the binder, how does the “ratio of amounts bound Z=Y/X (altered form / CE115HA000)” value (CD3ε homodimer protein [2]) read?
Answer: 0.81

B15: CE115HA000 A56L one-arm antibody (antibody, human IgG1, kappa, L234A L235A, N297A, name in Kabat numbering)
heavy: B1 heavy with A59L
chain: B1 chain
light: B1 light with F101Y
Question: With B15 as the binder, how does the “ratio of amounts bound Z=Y/X (altered form / CE115HA000)” value (CD3ε homodimer protein [2]) read?
Answer: 0.8

B16: CE115HA000 A99K one-arm antibody (antibody, human IgG1, kappa, L234A L235A, N297A, name in Kabat numbering)
heavy: B1 heavy with A105K
chain: B1 chain
light: B1 light with F101Y
Question: For B16, which “ratio of amounts bound Z=Y/X (altered form / CE115HA000)” value (CD3ε homodimer protein [2]) is on record?
Answer: 1.48

B17: CE115HA000 A32Y one-arm antibody (antibody, human IgG1, kappa, L234A L235A, N297A, name in Kabat numbering)
heavy: B1 heavy with A32Y
chain: B1 chain
light: B1 light with F101Y
Question: Which “ratio of amounts bound Z=Y/X (altered form / CE115HA000)” value (CD3ε homodimer protein [2]) does the source give for B17 here?
Answer: 0.33

B18: GLS3000 Y96H one-arm antibody (antibody, human IgG1, kappa, L234A L235A, N297A, name in Kabat numbering)
heavy: B1 heavy
chain: B1 chain
light: B1 light with F101H
Question: For B18, which “ratio of amount bound” value (CD3ε homodimer protein [1]) is on record?
Answer: 0.23

B19: CE115HA000 A52aS one-arm antibody (antibody, human IgG1, kappa, L234A L235A, N297A, name in Kabat numbering)
heavy: B1 heavy with A53S
chain: B1 chain
light: B1 light with F101Y
Question: How did the “ratio of amounts bound Z=Y/X (altered form / CE115HA000)” value (CD3ε homodimer protein [2]) turn out when B19 was run?
Answer: 1.05

B20: CE115HA000 A56G one-arm antibody (antibody, human IgG1, kappa, L234A L235A, N297A, name in Kabat numbering)
heavy: B1 heavy with A59G
chain: B1 chain
light: B1 light with F101Y
Question: Which “ratio of amounts bound Z=Y/X (altered form / CE115HA000)” value (CD3ε homodimer protein [2]) does the source give for B20 here?
Answer: 0.61

B21: CE115HA000 A60E one-arm antibody (antibody, human IgG1, kappa, L234A L235A, N297A, name in Kabat numbering)
heavy: B1 heavy with A63E
chain: B1 chain
light: B1 light with F101Y
Question: B21 was tested. Which “ratio of amounts bound Z=Y/X (altered form / CE115HA000)” value (CD3ε homodimer protein [2]) did it give?
Answer: 0.94

B22: CE115HA000 A52aE one-arm antibody (antibody, human IgG1, kappa, L234A L235A, N297A, name in Kabat numbering)
heavy: B1 heavy with A53E
chain: B1 chain
light: B1 light with F101Y
Question: For B22, which “ratio of amounts bound Z=Y/X (altered form / CE115HA000)” value (CD3ε homodimer protein [2]) is on record?
Answer: 0.57

B23: CE115HA000 A99D one-arm antibody (antibody, human IgG1, kappa, L234A L235A, N297A, name in Kabat numbering)
heavy: B1 heavy with A105D
chain: B1 chain
light: B1 light with F101Y
Question: How did the “ratio of amounts bound Z=Y/X (altered form / CE115HA000)” value (CD3ε homodimer protein [2]) turn out when B23 was run?
Answer: 0.28

B24: CE115HA000 A99S one-arm antibody (antibody, human IgG1, kappa, L234A L235A, N297A, name in Kabat numbering)
heavy: B1 heavy with A105S
chain: B1 chain
light: B1 light with F101Y
Question: How did the “ratio of amounts bound Z=Y/X (altered form / CE115HA000)” value (CD3ε homodimer protein [2]) turn out when B24 was run?
Answer: 0.82

B25: CE115HA000 A52aY one-arm antibody (antibody, human IgG1, kappa, L234A L235A, N297A, name in Kabat numbering)
heavy: B1 heavy with A53Y
chain: B1 chain
light: B1 light with F101Y
Question: For B25, which “ratio of amounts bound Z=Y/X (altered form / CE115HA000)” value (CD3ε homodimer protein [2]) is on record?
Answer: 0.31

B26: CE115HA000 A99F one-arm antibody (antibody, human IgG1, kappa, L234A L235A, N297A, name in Kabat numbering)
heavy: B1 heavy with A105F
chain: B1 chain
light: B1 light with F101Y
Question: B26 was tested. Which “ratio of amounts bound Z=Y/X (altered form / CE115HA000)” value (CD3ε homodimer protein [2]) did it give?
Answer: 1.43

B27: CE115HA000 A56Q one-arm antibody (antibody, human IgG1, kappa, L234A L235A, N297A, name in Kabat numbering)
heavy: B1 heavy with A59Q
chain: B1 chain
light: B1 light with F101Y
Question: B27 was tested. Which “ratio of amounts bound Z=Y/X (altered form / CE115HA000)” value (CD3ε homodimer protein [2]) did it give?
Answer: 0.76

B28: CE115HA000 A60D one-arm antibody (antibody, human IgG1, kappa, L234A L235A, N297A, name in Kabat numbering)
heavy: B1 heavy with A63D
chain: B1 chain
light: B1 light with F101Y
Question: Which “ratio of amounts bound Z=Y/X (altered form / CE115HA000)” value (CD3ε homodimer protein [2]) does the source give for B28 here?
Answer: 0.99

B29: CE115HA000 A102I one-arm antibody (antibody, human IgG1, kappa, L234A L235A, N297A, name in Kabat numbering)
heavy: B1 heavy with A111I
chain: B1 chain
light: B1 light with F101Y
Question: For B29, which “ratio of amounts bound Z=Y/X (altered form / CE115HA000)” value (CD3ε homodimer protein [2]) is on record?
Answer: 1.48

B30: CE115HA000 A56N one-arm antibody (antibody, human IgG1, kappa, L234A L235A, N297A, name in Kabat numbering)
heavy: B1 heavy with A59N
chain: B1 chain
light: B1 light with F101Y
Question: Which “ratio of amounts bound Z=Y/X (altered form / CE115HA000)” value (CD3ε homodimer protein [2]) does the source give for B30 here?
Answer: 0.67

B31: GLS3000 Y96L one-arm antibody (antibody, human IgG1, kappa, L234A L235A, N297A, name in Kabat numbering)
heavy: B1 heavy
chain: B1 chain
light: B1 light with F101L
Question: For B31, which “ratio of amount bound” value (CD3ε homodimer protein [1]) is on record?
Answer: 0.32
